# Results taken from publication PMC5300038.
# Target: 14-3-3ε (UniProt P62258)
# Assay: anti-Flag IP, anti-14-3-3ε Western blot
# Details: reference: wild type; sites S274,S299
substance,measurement,value
PITPNC1 (from UniProt Q9UKF7) S274/299A,binding against the reference,weaker
